Numbering of substitutions follows the chain as printed. Numbers in names are those of the source.
B1: TiPDH (phenylalanine dehydrogenase) (Thermoactinomyces intermedius) (protein)
chain: MRDVFEMMDRYGHEQVIFCRHPQTGLKAIIALHNTTAGPALGGCRMIPYASTDEALEDVLRLSKGMTYKCSLADVDFGGGKMVIIGDPKKDKSPELFRVIGRFVGGLNGRFYTGTDMGTNPEDFVHAARESKSFAGLPKSYGGKGDTSIPTALGVFHGMRATARFLWGTDQLKGRVVAIQGVGKVGERLLQLLVEVGAYCKIADIDSVRCEQLKEKYGDKVQLVDVNRIHKESCDIFSPCAKGGVVNDDTIDEFRCLAIVGSANNQLVEDRHGALLQKRSICYAPDYLVNAGGLIQVADELEGFHEERVLAKTEAIYDMVLDIFHRAKNENITTCEAADRIVMERLKKLTDIRRILLEDPRNSARR
notes: His-tagged, pET-Duet1, E. coli BL21(DE3), Ni-NTA purified
B2: TiPDH (phenylalanine dehydrogenase) (Thermoactinomyces intermedius; A135R) (protein)
chain: B1 chain with A135R
notes: as for B1

Legend:
purified protein [1] = substrate: O=C(O)C(=O)Cc1ccccc1; test: purified protein; type: biochemical, Thermoactinomyces intermedius; settings: reductive amination, Tris-NH4Cl pH 8.0, 1 mM NADH, 37°C (general assay)
purified protein [2] = substrate: O=C(O)CCCC(=O)C(=O)O; test: purified protein; type: biochemical, Thermoactinomyces intermedius; settings: reductive amination, Tris-NH4Cl pH 8.0, 1 mM NADH, 37°C (general assay)
[3] = mutant called only 'mutated TiPDH' at the number, A135R by b37-b38 (G114R and double mutant inactive)

Protein | Km (purified protein [1]; natural substrate) [µM] | kcat (purified protein [1]; natural substrate) [s⁻¹] | Km (purified protein [2]) [µM] | kcat (purified protein [2]) [s⁻¹] | Km (purified protein [1]) [µM] | kcat (purified protein [1]) [s⁻¹] | Km (purified protein [2]; [3]) [µM] | kcat (purified protein [2]; [3]) [s⁻¹]
B1 | 0.66 | 0.3715 | 1.771 | 0.00513 | – | – | – | –
B2 | – | – | – | – | 1.2 | 0.4307 | 7.518 | 0.0228
